Patent US20240002499A1, “ANTI-CLIC1 PROTEIN ANTIBODIES AND THE DIAGNOSTIC AND THERAPEUTIC USES THEREOF” (Universita' Degli Studi di Milano, priority 2020, published 2024)

Assays:
[1] = molecular target: T1, tmCLIC1 (Mus musculus, UniProt Q9Z1Q5); assay: Immunofluorescence on live microglial cells; format: cell-based, mice; conditions: live microglial cells before and after stimulation with β-amyloid
T1 construct: endogenous in cells; host or cells: BV-2 mouse microglial cell line
Procedure: The migration of the protein to the plasma membrane gives rise to insertion of CLIC1 as transmembrane protein. The tmCLIC1omab antibody was used on live cells to specifically identify tmCLIC1. […] In live cells, the tmCLIC1omab antibody was used before (B) and after (C) stimulation with β-amyloid.
Immunofluorescence analyses were conducted to evaluate the specificity of the antibody in binding the transmembrane portion of the CLIC1 protein in WT and Clic1^−/− cells. The cells (5×10^4 cells/well) were plated on slides (ϕ12 mm). The cells were kept viable throughout the initial processes. The cells were washed three times with PBS Ca^2+/Mg^2+, and incubated for 45 minutes at room temperature in blocking solution (5% BSA in PBS). Subsequently, after removal of the blocking solution, the solution containing the antibody (3.5 μg/ml in PBS/BSA 5×) was added, and incubated for 1 h at room temperature. After three washes with PBS Ca^2+/Mg^2+, the cells were fixed with paraformaldehyde (PFA 2%) for 5 minutes at room temperature. After being washed three times with PBS Ca^2+/Mg^2+, the cells were incubated with secondary antibody Alexa Fluor 488 (Thermo Fischer Scientific) for 2 h at room temperature in the dark. […] The slides were observed through a Zeiss Examiner A1 fluorescence microscope with a Zeiss 40×/0.75 NA water immersion lens.

[2] = molecular target: T2, tmCLIC1 ion channel (Mus musculus, UniProt Q9Z1Q5); assay: Whole-cell patch clamp on BV2 microglial cells with β-amyloid; format: cell-based, mice; conditions: whole-cell configuration, perfusion of antibody after β-amyloid
T2 construct: endogenous in cells; host or cells: BV-2 mouse microglial cell line
Text: The microglial cells used (BV-2) originated from an immortalised cell line deriving from C57BL/6 mice and commonly marketed. The culture medium used was RPMI (Thermo Fisher Scientific) with the addition of 10% FBS (Euroclone) and 1% Pen/Strep ([…], Thermo Fisher Scientific).
The microelectrodes were obtained from borosilicate capillaries with a diameter of 1.5 mm. Micropipettes were produced with a P-97 Brown-Flaming puller (Sutter Instruments, Novato, CA), with which the capillaries were forged to a tip diameter of 1-1.5 μm and electrical resistance of 5-8 MΩ.
The perforated patch clamp configuration was used for the whole-cell experiments, employing the antibiotic gramicidin (final concentration in pipette 5 μg/ml) which forms pores in the membrane that are only permeable to monovalent cations; in this way, the cytoplasmic concentration of the chloride ion remains unchanged throughout the experiment. The ion currents were digitised at 5 kHz and filtered at 1 kHz. Clampex 9.2 was used as the data acquisition and analysis programme.
In the time-course experiments, the potential was set on the basis of the resting potential of each cell, and a voltage step of +60 mV was applied every 5 seconds. The current measured is that observed at the end of the voltage step lasting 800 ms. When the amplitude of the current reaches a constant value, the antibody and IAA94 are added in sequence. […]

B1: tmCLIC1omab: IgG1 class antibody containing the heavy chain variable region SEQ ID NO:13 and the light chain variable region SEQ ID NO:14 (antibody, listed as Mus musculus, V domains shown)
VH: EVMLVESGGGLVKPGGSLKLSCAASGFAFSNYAMSWIRQIPEKRLEWVATISTGGSSTFYPDSVKGRFTISRDNAKNTLYLQMSSLRSEDTAMYYCTRHAYEAWFAYWGQGTLVTVSA
VL: QIVLTQSPALMSASPGEKVTMTCSASSSVSYMYWYQQRPRSSPKPWIYLTSTLASGVPTRFSGSGSGTSYSLTISSMEAEDAATYYCQQWNSHPLTFGSGTKLEIK
For B1, the “recognition of tmCLIC1 on live cells” value [1] was “only reacts from the exterior” and the “reduction of membrane current increased by β-amyloid peptide” value [2] was “about fourfold”.
